Experiment [1] concerns the target PA-FITC (PA antigen of Bacillus anthracis) (Bacillus anthracis) (UniProt P13423).
Experiment [2] has as its target extracellular domain of glycosylated FcγRIIa (R&D systems), FITC-labeled (human) (UniProt P12318). Nature of the experiment: flow cytometry of spheroplasts displaying the Fc, labelled with FcγRIIa-FITC. (A flow cytometer gives signals particle by particle.)
The target in experiment [3] is Recombinant human FcγRI/CD64, extracellular domain, glycosylated (human) (UniProt P12314). Kind of experiment: flow cytometry of spheroplasts displaying the Fc clone, labelled with FcγRIa-FITC; the value is repeated on D00019 and D00020.
Recombinant human FcγRI/CD64, extracellular domain, glycosylated (human), sequence (P12314 16-292): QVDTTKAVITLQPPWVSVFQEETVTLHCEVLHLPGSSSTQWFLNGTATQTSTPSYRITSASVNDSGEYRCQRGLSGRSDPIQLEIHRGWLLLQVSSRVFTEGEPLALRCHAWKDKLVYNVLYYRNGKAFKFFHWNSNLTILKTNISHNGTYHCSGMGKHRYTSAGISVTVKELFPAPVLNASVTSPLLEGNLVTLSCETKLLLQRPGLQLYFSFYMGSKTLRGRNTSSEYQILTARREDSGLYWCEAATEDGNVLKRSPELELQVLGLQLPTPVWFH
Experiment [4] has as its target Protein A-FITC (Staphylococcus aureus) (UniProt P38507).
Experiment [5] has the same target. The source holds these as a separate data set.
The target is the same in experiment [6]. Kind of experiment: flow cytometry (FL1-Height) of spheroplasts labelled with Protein A-FITC; medium TB.
Experiment [7] shares this target. Nature of the experiment: flow cytometry (FL1-Height) of E. coli spheroplasts labelled with Protein A-FITC; APEx displayed Fc [panel a].
For experiment [8] the target is unchanged. Kind of experiment: flow cytometry (FL1-Height) of spheroplasts labelled with Protein A-FITC; medium TB, 0.5M Trehalose.
Experiment [9] has the same target. Kind of experiment: flow cytometry (FL1-Height) of spheroplasts labelled with Protein A-FITC; medium 'TB, 0.5M Soribitol'.
For experiment [10] the target is unchanged. Nature of the experiment: flow cytometry (FL1-Height) of E. coli spheroplasts labelled with Protein A-FITC; no Fc expressed [panel a].
Experiment [11] has the same target. Nature of the experiment: flow cytometry (FL1-Height) of E. coli spheroplasts labelled with Protein A-FITC; one plasmid, no cJun(Cys) anchor co-expressed [panel b].
Experiment [12] has the same target. Nature of the experiment: flow cytometry (FL1-Height) of E. coli spheroplasts labelled with Protein A-FITC; Fc-cFos(Cys) co-expressed with the inner-membrane anchor NlpA-cJun(Cys)-FLAG; the same histogram stands in both panels [panels a and b].
For experiment [13] the target is unchanged. Nature of the experiment: flow cytometry (FL1-Height) of E. coli spheroplasts labelled with Protein A-FITC; one plasmid, no cJun anchor co-expressed [panel b].
Experiment [14] has the same target. Nature of the experiment: flow cytometry (FL1-Height) of E. coli spheroplasts labelled with Protein A-FITC; Fc-cFos co-expressed with the inner-membrane anchor NlpA-cJun-FLAG [panel a].
The target in experiment [15] is Recombinant human FcγRI/CD64, extracellular domain, glycosylated (human) (UniProt P12314). Kind of experiment: SPR (BIAcore 3000), FcγRIa immobilized on CM-5. On the technique in general: In SPR one partner is held on a chip, and binding of the other changes the refractive index at the surface.

Several values for one entry are separate records, joined by “and”; a condition that tells them apart may be missing. Equal entries are not always repeated. Where two headings read alike, the source gives them in different places.

PA-FITC (PA antigen of Bacillus anthracis) (Bacillus anthracis), sequence (P13423 30-764 limits assumed): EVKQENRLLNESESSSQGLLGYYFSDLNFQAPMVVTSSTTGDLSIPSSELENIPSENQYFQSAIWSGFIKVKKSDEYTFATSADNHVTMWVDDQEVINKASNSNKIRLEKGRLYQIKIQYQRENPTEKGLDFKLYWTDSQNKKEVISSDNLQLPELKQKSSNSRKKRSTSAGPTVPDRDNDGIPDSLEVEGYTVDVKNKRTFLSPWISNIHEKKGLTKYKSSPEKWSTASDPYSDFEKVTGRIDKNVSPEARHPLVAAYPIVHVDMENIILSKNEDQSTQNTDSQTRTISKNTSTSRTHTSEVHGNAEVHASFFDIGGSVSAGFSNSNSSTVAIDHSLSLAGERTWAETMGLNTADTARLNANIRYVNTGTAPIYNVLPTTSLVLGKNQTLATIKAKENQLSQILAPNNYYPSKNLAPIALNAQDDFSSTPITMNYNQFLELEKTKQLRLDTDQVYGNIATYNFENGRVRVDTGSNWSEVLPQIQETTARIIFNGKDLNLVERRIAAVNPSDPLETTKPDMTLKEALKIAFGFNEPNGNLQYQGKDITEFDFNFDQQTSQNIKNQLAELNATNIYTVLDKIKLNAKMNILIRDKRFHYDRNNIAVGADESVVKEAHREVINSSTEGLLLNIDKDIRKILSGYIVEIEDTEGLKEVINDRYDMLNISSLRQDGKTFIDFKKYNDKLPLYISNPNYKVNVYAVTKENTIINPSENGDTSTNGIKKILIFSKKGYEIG
extracellular domain of glycosylated FcγRIIa (R&D systems), FITC-labeled (human), sequence (P12318 34-217): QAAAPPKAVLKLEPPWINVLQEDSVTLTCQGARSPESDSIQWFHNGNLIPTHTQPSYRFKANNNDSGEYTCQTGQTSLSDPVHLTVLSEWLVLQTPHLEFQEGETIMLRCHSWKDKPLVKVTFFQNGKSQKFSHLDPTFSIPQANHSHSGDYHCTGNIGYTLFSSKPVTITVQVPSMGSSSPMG

In turn, 26-10 IgG1 (anti-digoxin) (antibody) gave a Mn (mean fluorescence intensity) in experiment [1] of 13.9.
On the same count and under the same terms, the figure for 26-10 scAb (anti-digoxin) is 14.7.
The same measure, in the same setting: the figure for 26-10 scFv (anti-digoxin) is 16.3.
In experiment [2], “Fc5 (E382V, M428I), aglycosylated Fc mutant (from UniProt P0DOX5 223-449)” came in with a M (mean fluorescence intensity) of 66.7.
“Fc117 (E382V, M428I, Y436A), aglycosylated Fc mutant (from UniProt P0DOX5 223-449)”: the FACS mean value in experiment [3] was 391.
As for M18 scFv (PelB fused, anti-PA), the M (mean fluorescence intensity) is 40 and 62.9 in experiment [4]; 43 in [5].
On to M18.1 humanized IgG1 (antibody), for which the Mn (mean fluorescence intensity) in [1] is 164.
Regarding M18.1 humanized scAb, in experiment [1], the Mn (mean fluorescence intensity) stood at 277.
For M18.1 humanized scFv, in experiment [1], the Mn (mean fluorescence intensity) was 313.
For the substance NlpA-Fc-His, the Mn (mean fluorescence intensity) in [6] was 1080; in [7], 2410; in [8], 3130; in experiment [9] it was 1290.
NlpA-cJun(Cys)-FLAG had a Mn (mean fluorescence intensity) in experiment [10] of 111.
As for PelB-Fc-cFos(Cys)-His, the Mn (mean fluorescence intensity) was 879 in experiment [11] and 733 in experiment [12].
For the substance PelB-Fc-cFos-His, the Mn (mean fluorescence intensity) in experiment [13] is 837; in experiment [14], 244.
For “commercially available glycosylated human IgG1 (antibody)”, in experiment [15], the Kd (in general, the concentration at which binding is half-saturated) stood at 0.018 µM.

The values above are taken from patent US20090136936A1.
